Data: the DeepSol protein solubility set

assay: soluble on expression in E. coli; label from the status in PepcDB or PDB records

| Sequence | soluble on expression in E. coli |
| --- | --- |
| MAHHHHHHMSINRYNYKTMNSLLKDKIPQHFDILPHTTIKCIIHPSVIFTILDAYLRRDEDQTHVIGTLMGSVIDTNLVEISDCFVDKHSLNEGGFLQIIKDHHETMYELKQKIRPRDQVVGWFCSGSELSELSCAVHGWFKEHNSISKFYPHTPLNEPIHLLVDASLESGFLNIKAYVQLPISLVKDYFVHFHEIQTELLPCNVERADVSLVKGNIHAHKDNHTNNLEHNHNNNQIDMNELSLKKLLIMLKQCKSYVQDVIDQKKKGNISVGRYLHKVLSNDTFLTLEKFDSINESVLQDNLMISYLSNLANLQFLIAEKLNSSSLQ | not soluble |
| MAHHHHHHMSLAGQFTTFCRTHEQPMNEESCAVFLMAIEVAPSTRQQYARMLRSMLEMNRTPLDMVILGLQKIASRSETKQTRPSTKERGGRMYPQPDRLEGTCCLTTCVDNGELLVRGFGLDFQQFHTGVGRGLSFGLARGAEDGEGGSIPRLAVREDTRAGRLRQYKAMQDTSRKRKAYEAYDCTGDTISGSLGCHGAFHKTGSVEARCSNRGDMRFGPARGLAVGEARRPVRPSPEYCSIFGEIHHNADPGVVIDRIDVKGETAEGQELWLRAEERFFHDFNHNHAATITRRATRTRPTTPQNEHAIPLQQVNVPVLNLEWIQIRLNPATLERLMQVWGLVGRSPFPLSSSGKAREGSRSIPTADARLLNAAGIIEDASSTITGGWIIPFFGCGGENHRFTTTMDRVATRQEQRRAL | not soluble |
| MAHHHHHHMSNDPKPTKPDPRVANNDVASDDGSDGKGDVAAPPAFLPTAGRVEVHPLVLLSLVDHYARMNTSAVQKKRVAGLLLGRYVRDSTGMQTLDINNSFAVPFDEDPQDAGVWFFDTNYAQEMFAMHKRVLPKVKVVGWYSSGPTIQPNDMLLHLLVADRFCLNPVYCVVNTDPNNKGVPVRAYTTVQGREGTRSLEFRNIPTHLGAEEAEEIGIEHLLRDLTDSTITTLSTQVQERELSLVHLCKVLQQIEEYLKDVGNAVMPISEDVLEVLQELISLQPEIYARRSSTEMIRHTNDEAIATFLAAIARCIGALHGVIMNRRKLARELQEIKDRRARAAETRLENEKMKIEEAAKEKDTNQA | not soluble |
| MAHHHHHHMSPAADTTHSTTKPCAPNRSSIPETCSRAPNGTRASAADEVTLLTAPQFAKSTKDTRSTARQQEEQLSDVLVLIRHGERQDHVDRAWKGNALLPLYDPPLSNAGRMQSFETALRYFALRQERKVEKRIRGTFTLFLVSPFHRCIETAAVMNVIAFEGRLPMYVEPFLSDWQQAKVFRTAPVLGGSYTTSGRPSVPGAKGDRLLFRPQVEALRVTLIPFLKTRAAEETELLAEYKIGAEVASAWTTLAEEWLNTHTALPVWTCAAATNVIEAKVASRSDGASDVRATSRKAAKGSQPSPRDASNEGYRGCGVAHPEGKSDLLRRCEQVMSTHFLRCAAVASDTMVPLAIQTAVAAERTTRLPKYFQIWAERPEENRESAGPPALLPPMHIMAITHADVVSTLLEVCCPKYHDKGAGYSVPYCSVTTLQRHNNYYRIPTAEERRRREASASTLAPAQNRGKCYAKKKGNTPSSKNQLMTPIRTRPLSPLSVEWNVEAVGSTDLLRTRIVIQYTK | soluble |
| MAHHHHHHMSSVSAAPQLSPKVIPGCSNTHSNSGLPTILSDLGTFAYQSACYGPQQLLACSSAVTNAGEVIFVYDMNSMLLTQSLSGHKAAVTALLWRPPPASYLQTGLFLWSGDARGALMYWDVVEGVALTSIQTPCHAAVQSLTLLTDEHLLVVTQEGAGYVFNSHLVDNTPLPPGRLLLETKQSTLLGNISRPSLVACSRLNDQHCCAVVLGDRLRILTAIQLDSGATAPVAKDLIYDSCDGAPTVVDVFFSDAQEEVLYFATRNTVGCYDWKLRLMLNESLLWLPDEVEFRRIFRSCSSGAAARTAASRSQESTASSSGDAAAAQVPLMYSFGSDQRLVAWHVTRHDRFTAVLTDVRGARINAKLCVNVVQSELDSSMFAVLFEDGSIVHWQYSPLARRWKLLDCWLAPVVRPVTFCPVGAHHCCVALESGHLALMDITHSMAVRRLTWSTLAERRLCCCAGTSGATLSGSCRTASNSTATTTKSR | not soluble |
| MAHHHHHHMSTSVVARHPQMRPSRKRQAQRQHPRQQRSVAHKAQRAPSSGHGASSVEHLPRDAVVHVALRQQHRPAGQAHSRIKRHRVVLRRQKVVPHKRHGGARHTHSPTHRHRVLAQQEVAVNKRHHGAAAGRNAALHRHAQPQRRLHQQSVHVQRTARRQRHAANHQHANSVAEHSRHLRSRNCQHAPRQIHVVHHEARRRVAKVVGAAVRNTRLCYQHRVHHSDARARRKPVRHQHTAARTRLKTADQHINALASRRVGPPPNNVQARSAQKRAVRQRHVAHAP | not soluble |
| MAHHHHHHMSVKNTFGTQAAKALCANLYTNWLSEDENVERIRDLLNRVLTLSATDQHSEMGAKNAASMTTAAAAAAGDKKGKAAGADALGNGARHSDPAVGLSTSSAAIHGNADRAQSPQPSPPQKSDKSAAALAADDRTPSPIQPSTSPTLIARFPGGVDELDYPHRAGSPVVTPVSPQPKPIVDPSAPLPHVGTGSLSPHGVHSLGSPRLDTTLNAAMVSGDLTIPLDASSTLSTTARESTTRFLHTSGSFAVTPPANLKQATLDEIPCFYSKRESRGLQIEVDVEEAQELSRLLEKNDPVKKTVWVFGDISSKVFKVPIWYKEALFKDIATRSGLDAATADTLTAAQIRTVYNDVYAPLSVSRRLYELICTHPKKEFITLSDLEGMGKYLVAAHPGLQFLQQPEFQEYYWHTVAVRIMYMLERQQCGRIYWRDFDRSDLPERMMELDAKDVNLVLDYFSYEHFYVLYCKFWELDTDRDLLVGFEDLCNYGQGSVVTGVIKRVVEGYGRPLSSGVPGKMDFEDFVYFCLSEEDKNSEPAVLYWFKVLDTDEDGVLSGYEMMQFFEENQQRFLEFSDSPEGDIAYEDTVCQMLDMVGFDRVKVRKYGVTLGDLRSCPTPANFFNMIFNASKFLLFEHRDPFGEHQMRLRVEKTEWDRFARAEYDRMAAEAQ | not soluble |
| MAHHHHHHMTAHVDRCVFFSKMGACRHGDQCTKLHYRPDTSPTVLFPLMYPNPHAIEHIKDREWNFELDKKYLKKHFEHFYKEVWRTFMEFGRIAELRVVSNLGDHLLGNVYIRFEDPQVATRIVKELRGKKLNDIIVLPELSPVTNFAEACCKEDLENRCQRGEQCNYLHIMKVSRRLLEKLEKEQSKYWKKKERRHEHSSSDRKRSRSRSPADTRW | soluble |
| MAHHHHHHMTAQILLYTDCIPQVFSPLKGEREGLLDSQQFANITTNCNTAFACGDPSLNTRISPYMRLSYFHNVTRIRNRKAHISHDIAGDCYVHYKTTCGGIILRPNVRLRPRGRSHRNRVSPRNVIFAAIFLNHRRNGLNRHIDRLNQILQKIIGNIAQTRYG | not soluble |
| MAHHHHHHMTDMHTTLSRVILVAMLHDVADHKYDSDGTLRHRVEAFIKEERNATIETAESHAYALQTIEAVSFSAEKQRGKRWFTSVLPTEWLRVRDIVSDADKLEAIGYAGLLRCLEYTSHLLLPRGKTTEGEQHMKEGGEGRPHWSREFERQCLQNVREHFEEKLNLLPTEYIVTEPGRFLALPRRAEMVEALHQWEENGLPPLS | not soluble |
| MAHHHHHHMTRKVAGDMWDSRVEASLPALNYLRTAQQLQKKADELSRAQERVHRLQEDNSALLLENELLKRERDALLCKVQFLELNEHGHCTTNDIVGPWGNVRSVPAGGLGSTTGGDLSPVFKDNVNKASETRVNISEQARTHTNSEQQDLHNPKEETILCPLSASSETLINTNRPDANIETFHRSTESHVEYCANGECRSPISMTRTTQTVAYERRVPSVERGTMTTMNIYICSYQSLPSKAGAFFEVPLSNVETAIHHDPESLTSITIPRS | not soluble |
| MAHHHHHHMTSTVTAVNQTQSLAAIRNFVRASVSCITYARGLCSDNAYEQRPFLGLPLRQLIPSTTESITISEWIEKGAFDALNRNYLKEMSLCVYDAACHELLESYCFGFNYTGDGERAQMTLNASQTIADGSKTTAVSQSSGGAVGIPAYRKRRCTKQEVQHLLTSILERLMDVVESLPPLLSERVLTMRLTYYDAVTPASYEPPCFAPASEHMARLYQAEVKHHVNIGSMDTSHHLFSVAIRHPLLQQIHRQMTGRTTSAVATKTGGSPLSAGKIAAVSTPSDPLRSGWESSFSSDPAVASAVAAAGATVTHGVVASHASCGLLLCADGEGAAFDAENAGEEKAAGSSLGEVGGGGACTARTGETLRPCEVAKLDGVYRLMEKSTSGDERRLLRPAELTYLLFAAFVFTKAPSARGGRGELKADEVEAYRALRCPFDVSAKTVLLVLQRLSREDFLQPCNARGAPAPKMPKAEEGSRPTPAIRAWLVPDPPASLLQQLMQVDAVTELLTHESHLVLQELSVYLAREEWRRAPRTMTAKATSGRISTTGGSGKRRSSR | soluble |
| MAHHHHHHMVDDILKCIHNEFKYVLISCDINNEIKELTFKGSEEKFQNTLGSYFRRIIFDEKGKDELKESIKEKLKTNDKNDEDKEKVNTISPDIINNAIESSQTYQIIPLTIPNEKNDFLGINCYIDDIGRIKKLPYNSRASRICSTEIYGDAFLSKTYDNEDFKRCDFTISEYDEFLKNPPKSENRWDQAQAMQNLLKQMKGQNDAGVNDEAPTEKVNACEHCYKEQNLKRCGRCKKVYYCSVECQKSDYVFHKRICS | soluble |
| MAHHHHHHMVIFDDVENSNRVGGNEGGIRPIFVQLTPNAPLPSEEYLRLVALSKAPPPPDSEGSTLHSARNCRERSARVNGRRSPTKTNVRPRPPVTATQKWGDNAMSLINSKEEAVQRHEFALHVRGARYCRLLETMLDSSDLQLEPLHYDPKDPNMGRRPNGTEGNPANSLPPVILPQATQKGCVALFTYLDLITKRVPSMLSKPLRAPLEELVQPWELEFLLYSCMGDDVRNAITHIDEDGTADKRGRAPTNDTRPSYYSTILEKAPRSVDLLLEVALLSDFLLVEPLRQLTCAFIASLALNASSEEELLQLSGLQRPMTEDELEPLYYQFPFLRPDNHAKN | not soluble |
| MAHHHHHHMVNEYHEAPRPAITLPRPGTKFRASAVEPILKKVCQTLVGDRAYAHEDVQPLIKEICSEIQQRVVRLGYERYKFVTHATVTEAVNQGIRIASRGLWDPVTDGYASYTFSTETMHVNVVLYALYWE | not soluble |
| MAHHHHHHMVNFILNEAKDKAHEIEAKALEDFNIEKLRIVQKMKEKIRVEFQKKAKQMEIKRSIARSSAINKARLKKMCAKDQVFKEIYKISSDKLNDLYKDKDKYKNLIVDLIVQSLFYMQEPHVIVRCRDIDKAVVESSLNEAVSKYTDKLKKQFNVTKTVKIELDKSGNYLPPPPTPENEGNSCLGGVILTTPNRKINCDNTLDVRLKLAIEYCTPEIKRMFFENA | not soluble |
| MAHHHHHHMVTAVASVVFARFLRQRYPTVQRVSQYENLSTSPDAPCFVANRILTMTSSQAGTHADGPHHFCRSLSHRNYDDAHYSGDAVVLDIATELREHHQSLDPDASLAITVEVLEKARVKLPAAFRDGSRPVWRLLLVTRHSTATSPTSASATEALTGPPRVFFPLDVASPTQVATVGVKGGTAATLAEPSSNAYAFLYPEAVDYLHRVFPRLVLLGIDSPSVDLPQAMPPGQHSHGALLRCGIAILENLRYTRLSPLLESPAGNNQRGWISGSMLTVFNATQNYDDARGCSVIFFPEEAL | soluble |
| MAHHHHHHMVWFSAPDNSEFLGDPLPRKARQPKVHLATEVSVEASVPWEDVSSWECGSQTSRNSSRSSTSDNAANGHVANINKFHDRMELIRRLNKRRRNNSTCRESGRTEQWTCQPLYVGVSTFPEMKEMSPKSVGGENVPFWNGAVVHDSPLMTDRSGSEVDKKPLKTRKCAWNLTYVRKNDWPEAHQMHEGDAII | not soluble |
